Source: US20260209386A1 (MYTHIC THERAPEUTICS, published 2026)
Substitutions are numbered along the chain they refer to.

Molecular target: T1, Human PTK7 (human, UniProt Q13308 31-1070)
T1 sequence: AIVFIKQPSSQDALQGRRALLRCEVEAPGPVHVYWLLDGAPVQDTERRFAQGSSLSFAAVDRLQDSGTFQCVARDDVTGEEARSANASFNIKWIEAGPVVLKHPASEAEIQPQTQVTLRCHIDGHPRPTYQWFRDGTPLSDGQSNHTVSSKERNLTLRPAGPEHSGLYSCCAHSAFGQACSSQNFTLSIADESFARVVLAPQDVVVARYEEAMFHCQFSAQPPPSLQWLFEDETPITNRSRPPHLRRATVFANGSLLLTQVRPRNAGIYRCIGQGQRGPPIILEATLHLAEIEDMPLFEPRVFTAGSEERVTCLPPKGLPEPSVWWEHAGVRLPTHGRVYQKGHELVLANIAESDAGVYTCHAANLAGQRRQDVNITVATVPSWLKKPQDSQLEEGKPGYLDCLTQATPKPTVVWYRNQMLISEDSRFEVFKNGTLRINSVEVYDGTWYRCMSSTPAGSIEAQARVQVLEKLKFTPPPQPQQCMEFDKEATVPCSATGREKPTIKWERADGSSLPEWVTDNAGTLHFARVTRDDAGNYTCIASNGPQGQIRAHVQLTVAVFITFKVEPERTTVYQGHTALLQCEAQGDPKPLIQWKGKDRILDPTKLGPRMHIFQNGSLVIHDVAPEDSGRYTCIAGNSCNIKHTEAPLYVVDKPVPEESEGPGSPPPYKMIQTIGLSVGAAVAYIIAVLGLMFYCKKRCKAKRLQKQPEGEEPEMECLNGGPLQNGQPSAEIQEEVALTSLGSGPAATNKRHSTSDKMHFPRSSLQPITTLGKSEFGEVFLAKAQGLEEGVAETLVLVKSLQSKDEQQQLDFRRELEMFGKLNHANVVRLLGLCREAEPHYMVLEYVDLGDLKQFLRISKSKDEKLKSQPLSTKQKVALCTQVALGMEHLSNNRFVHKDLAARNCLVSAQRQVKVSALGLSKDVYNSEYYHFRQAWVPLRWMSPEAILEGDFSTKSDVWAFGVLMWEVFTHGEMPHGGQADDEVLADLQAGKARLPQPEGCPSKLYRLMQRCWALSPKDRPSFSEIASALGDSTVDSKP
Assay: cell-based or functional assay

B1: MYT11271 (antibody, V domains shown)
VH: EVQLVESGGGLVQPGGSLRLSCTASGIDLSRYSMGWVRQAPGKGLEWVGIISYGGSHYYASWAKGRFTISRDTSKNTVYLQMNSLRAEDTAVYFCARVGYPGYSGYGYAFDAFDPWGQGTLVTVSS
VL: EIVMTQSPSTLSASVGDRVIITCQSSKSVYNDNWLSWYQQKPGKAPKLLIYGASTLASGVPSRFSGSGSGAEFTLTISSLQPDDFATYYCAGGYSSSSDNGFGQGTKLTVL
  Internalization, FOW @ 25 nM (fold over the wildtype, parental antibody): 1.57 fold over parental antibody

B2: MYT11297 (antibody, V domains shown)
VH: B1 VH with H57T, F113H
VL: B1 VL
  Internalization, FOW @ 25 nM (fold over the wildtype, parental antibody): 1.51 fold over parental antibody

B3: MYT11305 (antibody, V domains shown)
VH: B1 VH with H57T
VL: B1 VL with S25H
  Internalization, FOW @ 25 nM (fold over the wildtype, parental antibody): 1.37 fold over parental antibody

B4: MYT11281 (antibody, V domains shown)
VH: B1 VH with H57T, R97H
VL: B1 VL
  Internalization, FOW @ 25 nM (fold over the wildtype, parental antibody): 1.11 fold over parental antibody

B5: MYT11303 (antibody, V domains shown)
VH: B1 VH with H57T, D114A
VL: B1 VL
  Internalization, FOW @ 25 nM (fold over the wildtype, parental antibody): 1.51 fold over parental antibody

B6: MYT11291 (antibody, V domains shown)
VH: B1 VH with H57T, G107H
VL: B1 VL
  Internalization, FOW @ 25 nM (fold over the wildtype, parental antibody): 1.53 fold over parental antibody

B7: MYT11282 (antibody, V domains shown)
VH: B1 VH with H57T, V98H
VL: B1 VL
  Internalization, FOW @ 25 nM (fold over the wildtype, parental antibody): 1.68 fold over parental antibody

B8: MYT11294 (antibody, V domains shown)
VH: B1 VH with H57T, F110H
VL: B1 VL
  Internalization, FOW @ 25 nM (fold over the wildtype, parental antibody): 1.66 fold over parental antibody

B9: MYT11284 (antibody, V domains shown)
VH: B1 VH with H57T, Y100H
VL: B1 VL
  Internalization, FOW @ 25 nM (fold over the wildtype, parental antibody): 1.51 fold over parental antibody

B10: MYT11293 (antibody, V domains shown)
VH: B1 VH with H57T, A109H
VL: B1 VL
  Internalization, FOW @ 25 nM (fold over the wildtype, parental antibody): 1.65 fold over parental antibody

B11: MYT11280 (antibody, V domains shown)
VH: B1 VH with H57T, A96H
VL: B1 VL
  Internalization, FOW @ 25 nM (fold over the wildtype, parental antibody): 1.16 fold over parental antibody

B12: MYT11307 (antibody, V domains shown)
VH: B1 VH with H57T
VL: B1 VL with K27H
  Internalization, FOW @ 25 nM (fold over the wildtype, parental antibody): 1.82 fold over parental antibody

B13: MYT11287 (antibody, V domains shown)
VH: B1 VH with H57T, Y103H
VL: B1 VL
  Internalization, FOW @ 25 nM (fold over the wildtype, parental antibody): 1.71 fold over parental antibody

B14: MYT11292 (antibody, V domains shown)
VH: B1 VH with H57T, Y108H
VL: B1 VL
  Internalization, FOW @ 25 nM (fold over the wildtype, parental antibody): 1.59 fold over parental antibody

B15: MYT11310 (antibody, V domains shown)
VH: B1 VH with H57T
VL: B1 VL with Y30H
  Internalization, FOW @ 25 nM (fold over the wildtype, parental antibody): 1.64 fold over parental antibody
